In PMC11772321:

Target: T1, His-OsNAC2 (Oryza sativa, UniProt Q7XUV6 1-343)
T1 sequence: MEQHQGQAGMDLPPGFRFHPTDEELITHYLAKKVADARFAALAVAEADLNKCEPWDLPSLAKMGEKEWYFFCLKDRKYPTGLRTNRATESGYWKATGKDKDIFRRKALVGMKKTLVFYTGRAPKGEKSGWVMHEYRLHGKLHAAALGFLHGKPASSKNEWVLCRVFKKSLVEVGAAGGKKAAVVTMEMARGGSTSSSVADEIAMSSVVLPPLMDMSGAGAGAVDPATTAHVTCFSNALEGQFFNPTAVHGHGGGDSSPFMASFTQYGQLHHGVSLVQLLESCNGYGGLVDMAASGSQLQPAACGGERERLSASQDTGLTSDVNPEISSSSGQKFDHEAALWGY
Assay: EMSA

B1: probe-OsNAC2-59 (MITE in OsSCE1a promoter) (dsDNA)
DNA 1: TCCTTTGAGTCTATCTCTCTCATCCAATTCTTGTGTTTTTCCTGTGGTTCAATCAAACG
DNA 2: CGTTTGATTGAACCACAGGAAAAACACAAGAATTGGATGAGAGAGATAGACTCAAAGGA
- binding result: binds
